# Source: article PMC3315491
# Target: T1, EspR (UniProt P9WJB7)
# T1 sequence: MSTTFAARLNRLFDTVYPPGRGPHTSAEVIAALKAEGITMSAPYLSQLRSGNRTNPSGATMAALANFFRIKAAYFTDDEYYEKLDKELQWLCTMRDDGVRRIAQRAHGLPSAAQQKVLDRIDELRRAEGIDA
# Assay: EMSA
row,Sequence,binding
1,GCTTGTCCCAAAGCTCTTTCAGGCCGTTGAGCGCGTTTGTGATGAACTCCCACACTTCTCCGAGGGTGCCCTTGATGATGTCCGCCACATCCGAAATGAT (double strand) [espA ORF negative control probe],no binding
2,GCTCATCGATGTGACCTCCACCGGGCTCCAAGAGCAAACGGTTATCTGTATGTATTTGCTGATCATGGTAGCGACAGTTGTGTCCACAACCAAGTGCAAACCTGAGCGGATT (double strand) [espR peak a EMSA probe],binds
3,GAAAACCGCCCCAGTTGCGGTGTGCGCTAGTTAACATCGCAACTACATATCAGCAAATCAGGGAGAGGAAACCGTGTCGTTTGTGTTGGTGTCTCCGTCGCA (double strand) [pe_pgrs19 peak probe],binds
4,ACTTGAGTTCTTCAGCAATGATGCATGCACGACTGTAGACCTGCGACCAAGTCAAGCTGTCAGCAAATCCCTTGGGGTCGGATCCGTAGTCGATGTACGTATATGCAGTGCTGTCAGGCT (double strand) [fadD26 peak probe],binds more weakly
5,TCAGGATGACCGTGTCGGGCGGATGCGGCCGACTCCGGGCAACCAGCAGCCAACGGAGATTCGCCGAGAGCCTCCTTTGCTGCCTGGGTCCGCACAGCGCTCGTCAGGCGA (double strand) [espR peak b EMSA probe],binds
6,TGCGTCGGTTAGTCTCTTTTTCGACCTTGGGGCGCGGAGGGTCGTTATGGTGTGTCACAGTGCTTTGCTGTCAAAGGCATTGGCGGTGCCGACCAAGCGACACT (double strand) [rv1490 peak probe],binds
7,ACCTCAACGACAATTTGCCAGAGCTAGTCAGCGACATAGAAGACAAAACACTCCAATGGCATGATCGAGCTTAGCTATGCTCCGGATGTAGCTGGCCGAAGAT (double strand) [rv2929 peak probe],binds
